From paper PMC5070119
Each block holds one substance with its values, some of them ahead of it.

Experiments:
[1] = target: cytosolic purine 5'-nucleotidase (cN-II) R367Q, C-terminally truncated (human) (UniProt P49902); test: SEC; Superdex 200 10/300 GL, 50 mM sodium phosphate pH 7.4, 100 mM NaCl, 2 mM TCEP; 200 ul of 0.5 mg/ml protein; calibrated with high molecular weight standards
[2] = target: cytosolic purine 5'-nucleotidase (cN-II) R367Q, C-terminally truncated (human) (UniProt P49902); test: SAXS; truncated proteins 0.25 to 2 mg/ml in 50 mM sodium phosphate pH 7.4, 100 mM NaCl, 2 mM TCEP, 5 % glycerol; BM29 beamline ESRF; Guinier approximation, P(r), Porod volume
[3] = target: cytosolic purine 5'-nucleotidase (cN-II) R238W, C-terminally truncated (human) (UniProt P49902); test: SEC; Superdex 200 10/300 GL, 50 mM sodium phosphate pH 7.4, 100 mM NaCl, 2 mM TCEP; 200 ul of 0.5 mg/ml protein; calibrated with high molecular weight standards
[4] = target: cytosolic purine 5'-nucleotidase (cN-II) R238W, C-terminally truncated (human) (UniProt P49902); test: SAXS; truncated proteins 0.25 to 2 mg/ml in 50 mM sodium phosphate pH 7.4, 100 mM NaCl, 2 mM TCEP, 5 % glycerol; BM29 beamline ESRF; Guinier approximation, P(r), Porod volume
[5] = target: cytosolic purine 5'-nucleotidase (cN-II), C-terminally truncated wild type (human) (UniProt P49902); test: SEC; Superdex 200 10/300 GL, 50 mM sodium phosphate pH 7.4, 100 mM NaCl, 2 mM TCEP; 200 ul of 0.5 mg/ml protein; calibrated with high molecular weight standards
[6] = target: cytosolic purine 5'-nucleotidase (cN-II), C-terminally truncated wild type (human) (UniProt P49902); test: SAXS; truncated proteins 0.25 to 2 mg/ml in 50 mM sodium phosphate pH 7.4, 100 mM NaCl, 2 mM TCEP, 5 % glycerol; BM29 beamline ESRF; Guinier approximation, P(r), Porod volume
[7] = target: cytosolic purine 5'-nucleotidase (cN-II) L375F, C-terminally truncated (human) (UniProt P49902); test: SEC; Superdex 200 10/300 GL, 50 mM sodium phosphate pH 7.4, 100 mM NaCl, 2 mM TCEP; 200 ul of 0.5 mg/ml protein; calibrated with high molecular weight standards
[8] = target: cytosolic purine 5'-nucleotidase (cN-II) L375F, C-terminally truncated (human) (UniProt P49902); test: SAXS; truncated proteins 0.25 to 2 mg/ml in 50 mM sodium phosphate pH 7.4, 100 mM NaCl, 2 mM TCEP, 5 % glycerol; BM29 beamline ESRF; Guinier approximation, P(r), Porod volume

stoichiometry N [1]: 4
stoichiometry N [2]: 4
Substance: cytosolic purine 5'-nucleotidase (cN-II) R367Q, C-terminally truncated (from UniProt P49902 1-536) (enzyme)

stoichiometry N [3]: 4
stoichiometry N [4]: 4
Substance: cytosolic purine 5'-nucleotidase (cN-II) R238W, C-terminally truncated (from UniProt P49902 1-536) (enzyme)

stoichiometry N [5]: 4
stoichiometry N [6]: 4
Substance: cytosolic purine 5'-nucleotidase (cN-II), C-terminally truncated wild type (from UniProt P49902 1-536) (enzyme)

stoichiometry N [7]: 4
stoichiometry N [8]: 4
Substance: cytosolic purine 5'-nucleotidase (cN-II) L375F, C-terminally truncated (from UniProt P49902 1-536) (enzyme)
